In patent publication US20140322218A1 (Amgen, published 2014):
Positions count from the first letter of the chain named.

Assays:
Cyno Cadherin-19 = target: T1, Cyno Cadherin-19 (cynomolgus monkey (Macaca fascicularis), UniProt Q9H159 44-772 (human entry)); assay: FACS, recombinant cyno CDH19
T1 construct: also called cyno CDH19; cynomologous CDH-19
T1 chain: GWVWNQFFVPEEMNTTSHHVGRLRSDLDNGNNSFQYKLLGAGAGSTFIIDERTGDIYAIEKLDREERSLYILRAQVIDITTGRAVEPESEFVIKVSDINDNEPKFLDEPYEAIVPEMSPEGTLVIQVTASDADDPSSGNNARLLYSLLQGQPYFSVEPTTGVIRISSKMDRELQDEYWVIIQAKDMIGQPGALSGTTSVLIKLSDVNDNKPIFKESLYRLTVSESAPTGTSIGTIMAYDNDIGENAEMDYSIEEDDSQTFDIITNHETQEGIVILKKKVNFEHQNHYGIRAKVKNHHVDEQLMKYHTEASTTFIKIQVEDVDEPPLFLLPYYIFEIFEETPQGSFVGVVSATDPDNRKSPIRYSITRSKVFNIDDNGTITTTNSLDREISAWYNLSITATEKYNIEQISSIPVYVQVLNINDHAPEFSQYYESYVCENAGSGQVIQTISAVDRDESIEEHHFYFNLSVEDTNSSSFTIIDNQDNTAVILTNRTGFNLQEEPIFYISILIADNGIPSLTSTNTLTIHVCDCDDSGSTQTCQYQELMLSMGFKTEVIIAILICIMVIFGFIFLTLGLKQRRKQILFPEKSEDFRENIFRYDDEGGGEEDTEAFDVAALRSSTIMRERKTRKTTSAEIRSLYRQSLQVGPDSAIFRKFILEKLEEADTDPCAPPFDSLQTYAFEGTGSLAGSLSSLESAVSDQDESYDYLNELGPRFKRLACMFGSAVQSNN

Human Cadherin-19 = target: T2, Human Cadherin-19 (human, UniProt Q9H159 44-772); assay: FACS, endogenous CDH19 on CHL-1/Colo699
T2 construct: Residues 1-43 are named as the native leader in the construct designations and are left out; also called human CDH19; huCDH19
Protocol: FACS binding assays were performed to evaluate the binding of the anti-Cadherin-19 receptor specific antibodies to endogenous Cadherin-19 receptor expressed on the CHL-1 tumor cell lines.
FACs assays were performed by incubating hybridoma supernatants with 10,000 to 25,000 cells in PBS/2% Fetal bovine serum/2 mM Calcium Chloride at 4° C. for one hour followed by two washes with PBS/2% Fetal bovine serum/2 mM Calcium Chloride. Cells were then treated with florochrome-labeled secondary antibodies at 4° C. followed by one wash. The cells were resuspended in 50 μl of PBS/2% FBS and antibody binding was analyzed using a FACSCalibur™ instrument.

[1] = target: T3, ckCDH19(1-43)::FLAG::ckCDH19(44-776), on 293T cells (chicken); assay: FACS, transfected 293T;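 also: antibody binding to chimera-expressing cells with 2 mM CaCl2 present, cell-bound Alexa647-labelled antibody read by flow cytometry, mock-transfected cells serving as control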
T3 construct: Entry holds leader (1-43), Flag tag and CDH19 part; leader left out; also called Ck EC1-5
T3 chain: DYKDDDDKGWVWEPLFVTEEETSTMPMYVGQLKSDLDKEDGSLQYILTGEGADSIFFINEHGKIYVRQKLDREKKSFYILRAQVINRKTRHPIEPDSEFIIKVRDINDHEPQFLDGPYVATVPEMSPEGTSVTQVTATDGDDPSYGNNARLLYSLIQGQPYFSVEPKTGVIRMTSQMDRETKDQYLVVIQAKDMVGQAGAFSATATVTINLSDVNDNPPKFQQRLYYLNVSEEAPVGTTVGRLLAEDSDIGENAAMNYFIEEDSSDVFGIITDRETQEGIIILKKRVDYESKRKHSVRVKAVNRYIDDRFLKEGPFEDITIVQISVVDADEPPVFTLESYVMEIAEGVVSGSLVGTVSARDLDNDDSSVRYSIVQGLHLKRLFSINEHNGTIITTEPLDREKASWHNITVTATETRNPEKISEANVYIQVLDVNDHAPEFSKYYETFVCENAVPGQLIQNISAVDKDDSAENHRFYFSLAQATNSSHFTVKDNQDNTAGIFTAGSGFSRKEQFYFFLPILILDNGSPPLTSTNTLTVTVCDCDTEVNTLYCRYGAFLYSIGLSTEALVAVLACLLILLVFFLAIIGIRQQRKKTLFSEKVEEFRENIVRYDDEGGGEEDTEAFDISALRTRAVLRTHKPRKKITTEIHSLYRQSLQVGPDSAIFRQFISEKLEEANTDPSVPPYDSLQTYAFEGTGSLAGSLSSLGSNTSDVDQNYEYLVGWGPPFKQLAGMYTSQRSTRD
Protocol: (§1) The following binding assay was completed in presence of 2 mM CaCl2. […] Cells were then washed one time and the amount of cell associated Alexa647-labelled Ab was quantitated by flow cytometry. The experiments included mock transfected controls.

[2] = target: T4, huCDH19(1-43)::FLAG::hu(44-141)::ckCDH19(142-776), on 293T cells (human/chicken chimera); assay: FACS, transfected 293T;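 also: antibody binding to chimera-expressing cells with 2 mM CaCl2 present, cell-bound Alexa647-labelled antibody read by flow cytometry, mock-transfected cells serving as control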
T4 construct: Entry holds leader (1-43), Flag tag and CDH19 part; leader left out; also called Hu EC1 (chicken backbone)
Protocol: as §1

[3] = target: T5, ckCDH19(1-43)::FLAG::ckCDH19(44-141)::huCDH19(142-249)::ckCDH19(250-776), on 293T cells (human/chicken chimera); assay: FACS, transfected 293T;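 also: antibody binding to chimera-expressing cells with 2 mM CaCl2 present, cell-bound Alexa647-labelled antibody read by flow cytometry, mock-transfected cells serving as control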
T5 construct: Entry holds leader (1-43), Flag tag and CDH19 part; leader left out; also called Hu EC2 (chicken backbone)
T5 chain: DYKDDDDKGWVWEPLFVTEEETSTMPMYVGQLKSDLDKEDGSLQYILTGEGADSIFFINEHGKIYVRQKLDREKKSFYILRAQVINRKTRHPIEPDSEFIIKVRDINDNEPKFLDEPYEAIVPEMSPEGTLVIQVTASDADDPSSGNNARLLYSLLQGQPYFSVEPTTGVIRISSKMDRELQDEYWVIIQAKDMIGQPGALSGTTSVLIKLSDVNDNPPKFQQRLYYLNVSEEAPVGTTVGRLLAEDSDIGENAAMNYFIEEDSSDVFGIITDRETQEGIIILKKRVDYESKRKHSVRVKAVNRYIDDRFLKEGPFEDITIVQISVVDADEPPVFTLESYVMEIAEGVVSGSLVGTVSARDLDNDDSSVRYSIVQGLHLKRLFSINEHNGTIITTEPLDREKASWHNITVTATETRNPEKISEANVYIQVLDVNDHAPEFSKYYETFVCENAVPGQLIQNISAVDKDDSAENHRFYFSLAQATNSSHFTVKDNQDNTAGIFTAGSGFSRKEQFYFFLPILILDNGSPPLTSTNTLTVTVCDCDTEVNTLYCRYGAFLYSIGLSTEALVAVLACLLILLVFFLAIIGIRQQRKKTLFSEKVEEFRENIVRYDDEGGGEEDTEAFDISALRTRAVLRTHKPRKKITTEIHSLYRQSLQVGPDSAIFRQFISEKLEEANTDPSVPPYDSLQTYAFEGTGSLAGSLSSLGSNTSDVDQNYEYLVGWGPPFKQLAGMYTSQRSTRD
Protocol: as §1

[4] = target: T6, (1-43)::FLAG::ckCDH19(44-468)::huCDH19(464-772), on 293T cells (human/chicken chimera); assay: FACS, transfected 293T;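 also: antibody binding to chimera-expressing cells with 2 mM CaCl2 present, cell-bound Alexa647-labelled antibody read by flow cytometry, mock-transfected cells serving as control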
T6 construct: Entry holds leader (1-43), Flag tag and CDH19 part; leader left out; also called Hu EC5 (chicken backbone)
T6 chain: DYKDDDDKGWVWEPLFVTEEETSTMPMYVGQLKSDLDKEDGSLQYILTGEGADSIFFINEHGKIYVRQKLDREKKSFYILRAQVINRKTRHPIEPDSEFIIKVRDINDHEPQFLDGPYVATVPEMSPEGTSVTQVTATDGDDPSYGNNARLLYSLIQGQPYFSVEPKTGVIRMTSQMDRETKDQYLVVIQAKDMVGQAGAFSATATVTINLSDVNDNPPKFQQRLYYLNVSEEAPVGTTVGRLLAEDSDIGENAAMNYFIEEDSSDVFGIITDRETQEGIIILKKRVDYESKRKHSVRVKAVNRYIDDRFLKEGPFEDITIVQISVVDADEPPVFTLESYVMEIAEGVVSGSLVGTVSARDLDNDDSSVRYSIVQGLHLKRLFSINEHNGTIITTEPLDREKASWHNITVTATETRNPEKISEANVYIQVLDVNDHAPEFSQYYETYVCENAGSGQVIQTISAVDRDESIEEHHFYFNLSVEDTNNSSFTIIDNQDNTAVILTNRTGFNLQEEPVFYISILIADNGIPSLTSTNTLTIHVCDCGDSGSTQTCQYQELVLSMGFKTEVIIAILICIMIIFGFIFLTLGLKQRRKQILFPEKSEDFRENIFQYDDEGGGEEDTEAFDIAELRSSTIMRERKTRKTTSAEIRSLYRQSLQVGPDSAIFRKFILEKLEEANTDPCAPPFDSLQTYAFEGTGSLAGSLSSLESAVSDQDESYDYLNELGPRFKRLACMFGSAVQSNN
Protocol: as §1

[5] = target: T7, muCDH19(44-770), Flag-tagged, on 293T cells (mouse); assay: FACS, transfected 293T
T7 construct: also called Mu EC1-5
T7 chain: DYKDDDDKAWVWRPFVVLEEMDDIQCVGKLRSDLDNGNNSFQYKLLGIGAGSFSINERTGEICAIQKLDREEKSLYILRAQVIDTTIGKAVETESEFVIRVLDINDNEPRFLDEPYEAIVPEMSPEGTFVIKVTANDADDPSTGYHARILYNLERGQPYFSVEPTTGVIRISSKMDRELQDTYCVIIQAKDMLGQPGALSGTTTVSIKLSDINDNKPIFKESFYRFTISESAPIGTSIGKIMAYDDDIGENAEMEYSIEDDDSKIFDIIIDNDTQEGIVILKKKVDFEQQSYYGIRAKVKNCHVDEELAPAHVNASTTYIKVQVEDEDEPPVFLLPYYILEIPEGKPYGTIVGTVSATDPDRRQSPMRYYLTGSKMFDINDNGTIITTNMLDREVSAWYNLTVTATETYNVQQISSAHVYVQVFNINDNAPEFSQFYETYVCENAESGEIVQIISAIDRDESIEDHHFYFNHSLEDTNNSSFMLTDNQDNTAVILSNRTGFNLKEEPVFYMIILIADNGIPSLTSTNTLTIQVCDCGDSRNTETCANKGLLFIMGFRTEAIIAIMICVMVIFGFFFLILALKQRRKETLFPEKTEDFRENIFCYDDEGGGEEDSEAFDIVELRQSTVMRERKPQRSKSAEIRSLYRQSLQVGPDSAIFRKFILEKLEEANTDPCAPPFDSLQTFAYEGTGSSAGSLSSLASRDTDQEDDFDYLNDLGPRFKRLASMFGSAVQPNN

[6] = target: T8, huCDH19(44-772), Flag-tagged, on 293T cells (human, UniProt Q9H159 44-772); assay: FACS, transfected 293T
T8 construct: Expressed with native leader (1-43) followed by a Flag tag; leader left out; also called Hu EC1-5
Description: (§2) The experiment included assaying the anti-CDH19 antibodies against mouse Cadherin19 to determine suitability for binning on these human/mouse chimeras.

[7] = target: T9, huCDH19(44-141)::muCDH19(140-770), Flag-tagged, on 293T cells (human/mouse chimera); assay: FACS, transfected 293T
T9 construct: also called Hu EC1
Description: as §2

[8] = target: T10, huCDH19(44-249)::muCDH19(248-770), Flag-tagged, on 293T cells (human/mouse chimera); assay: FACS, transfected 293T
T10 construct: also called Hu EC1-2; C137896
Description: as §2

B1: hu anti-<huCDH19> 4F7 VH::huIgG1z / 4F7 VL::huLLC-C1 (Ab ID 13591) (antibody, V domains shown)
VH: QVQLQESGPGLVKPSETLSLTCTVSGGSISSYSWSWIRQPPGKGLEWIGYIYYSGSTNYNPSLKSRVTISLDTSKNQFSLKLSSVTAADTAVYYCARNWAFHFDYWGQGTLVTVSS
VL: QSVLTQPPSVSGAPGQRVTISCTGSSSNIGTGYDVHWYQQLPGTAPKLLIHGNSNRPSGVPDRFSGSKSGTSASLAITGLQAEDEADYYCQSYDSSLSGWVFGGGTRLTVLG
Q: Does B1 bind (Cyno Cadherin-19)?
A: Result: binds

Q: Does B1 bind (Human Cadherin-19)?
A: Result: binds

B2: hu anti-<huCDH19> 26F12.1 VH::huIgG1z / 26F12.1 VL::huLLC-C2 (Ab ID 13881) (antibody, V domains shown)
VH: QVQLVQSGAEVKKPGASVKVSCKASRYTFTNYYMSWVRQAPGQGLEWMGIINPSGGDSTYAQKFQGRLTMTGDTSTSTVYMELSSLRSEDTAVYYCARGGIQLWLHFDYWGQGTLVTVSS
VL: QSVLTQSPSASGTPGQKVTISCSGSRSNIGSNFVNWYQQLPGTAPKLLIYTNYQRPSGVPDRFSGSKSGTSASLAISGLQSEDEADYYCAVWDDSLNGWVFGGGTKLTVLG
notes: also called 27B3
Q: Which results are given for B2?
A: binding result [1]: no binding (tested: 5 ug/ml); binding result [2]: binds; binding result [3]: no binding (tested: 5 ug/ml); binding result [4]: no binding (tested: 5 ug/ml); binding result [5]: no binding (tested: 5 ug/ml)

B3: hu anti-<huCDH19> 17H8.2 VH::huIgG1z / 17H8.2 VL::huKLC (Ab ID 13874) (antibody, V domains shown)
VH: QVQLQESGPGLVKPSETLSLTCTVSGGSINSYYWSWIRQPPGKGLEWIGYIYYIGSTNYNPSLKSRVTISVDTSKNQFSLKLSSVTAADTALYYCARDSRYRSGWYDAFDIWGQGTMVTVSS
VL: DIVLTQSPGTLSLSPGERATLSCRASQSVAGSYLAWYQQKPGQAPRLLISGASSRATGIPDRFSGSGSGTDFTLTISRLEPEDFAVYYCQQYGKSPITFGQGTRLEMKG
notes: also called 23B6; 28D10
Q: Does B3 bind [1]?
A: Result: no binding (tested: 5 ug/ml)

Q: Does B3 bind [2]?
A: Result: binds

Q: Does B3 bind [3]?
A: Result: no binding (tested: 5 ug/ml)

Q: Does B3 bind [4]?
A: Result: no binding (tested: 5 ug/ml)

B4: hu anti-<huCDH19> 20D3.1 VH::huIgG1z / 20D3.1 VL::huLLC-C2 (Ab ID 13878) (antibody, V domains shown)
VH: QVQLVQSGAEVKKPGASVKVSCKVSGYTFTSYFIHWVRQAPGQGLEWMGIINPISVSTSYAQKFQGRVTMTRDTSTSTVFMELSSLRSEDTAVYYCARGGIQLWLHFDYWGQGTLVTVSS
VL: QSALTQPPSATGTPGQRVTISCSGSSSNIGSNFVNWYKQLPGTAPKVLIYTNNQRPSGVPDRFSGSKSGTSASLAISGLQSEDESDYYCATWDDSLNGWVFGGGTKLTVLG
notes: also called 16H2; 23E7
Q: Which results are given for B4?
A: binding result (Cyno Cadherin-19): binds; binding result (Human Cadherin-19): binds

B5: hu anti-<huCDH19> 25F8.1 VH::huIgG1z / 25F8.1 VL::huLLC-C2 (Ab ID 13880) (antibody, V domains shown)
VH: B4 VH with V24A, F33Y, I54S, S55G, V56G, S59R
VL: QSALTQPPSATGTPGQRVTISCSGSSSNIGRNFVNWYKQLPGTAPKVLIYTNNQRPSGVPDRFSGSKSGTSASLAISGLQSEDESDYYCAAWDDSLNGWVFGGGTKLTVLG
Q: Does B5 bind [6]?
A: Result: binds

Q: Does B5 bind [7]?
A: Result: binds

Q: Does B5 bind [8]?
A: Result: binds

Q: Does B5 bind (Cyno Cadherin-19)?
A: Result: binds

Q: Does B5 bind (Human Cadherin-19)?
A: Result: binds

B6: hu anti-<huCDH19> 22D1.1 VH::huIgG1z / 22D1.1 VL::huLLC-C2 (Ab ID 13879) (antibody, V domains shown)
VH: B4 VH with K19R, F107L
VL: QSALTQPPSATGTPGQRVTISCSGSSSNIGSNFVNWYKQLPGTAPKVLIYTNNQRPSGVPDRFSGSKSGTSASLAISGLQSEDESDYYCATWDDSMNGWVFGGGTKLTVLG
Q: Which results are given for B6?
A: binding result (Cyno Cadherin-19): binds; binding result (Human Cadherin-19): binds

B7: hu anti-<huCDH19> 19B5.1 VH::huIgG1z / 19B5.1 VL::huLLC-C2 (Ab ID 13885) (antibody, V domains shown)
VH: B4 VH with F107L
VL: B6 VL with A10T, S26R
Q: What does the source list for B7?
A: binding result (Cyno Cadherin-19): binds; binding result (Human Cadherin-19): binds
